Experimental data taken from patent US20230071765A1, “COMPOSITIONS HAVING THIOREDOXIN ACTIVITY AND RELATED METHODS” (ORPRO THERAPEUTICS, INC., priority 2020, published 2023).
Substitutions are numbered along the chain they refer to.

Tests used:
[1] = lyophilized from 9% sucrose, 1.7 mM EDTA, pH 5.2; 40° C. for six months; cited from earlier work
rats = details: rat, in vivo; cited from earlier work
Sprague-Dawley rats = test: nebulized aerosol inhalation in rats, inflammatory potential and toxicity; type: in vivo, rat; details: for neutrophil influx (sucrose/EDTA formulation effect): nebulized aerosol; for adverse test article effects (clinical observations, BALF chemistry, cell count, differential, lung cytokines, macroscopic and microscopic findings): target delivered doses 10 mg/kg and 40 mg/kg, aerosol, 1, 4 or 20 hours post exposure
Description: This example evaluated and compared the in vivo inflammatory potential among three forms of C35S monothiol Trx (oxidized ORP-100, reduced ORP-100, and reduced ORP100S) formulated in the sucrose/EDTA formulation composition described in PCT WO 2006/090127 and delivered to normal rats as nebulized aerosols at doses of […] and 40 mg/kg.
All three forms of ORP-100 were lyophilized following reduction with DTT and formulated in sucrose buffer (9% sucrose 1.17 mM EDTA pH 5.2). All test articles were evaluated at low (10 mg/kg) and high (40 mg/kg) target delivered doses. The test articles were administered to Charles River Sprague-Dawley rats via inhalation as an aerosol. The aerosol of each of the test articles was produced by a commercially available vibrating mesh nebulizer whose output was attached to a nose-only exposure system.
Target doses were achieved via modulation of the aerosol exposure time while maintaining the aerosol concentration constant. Animals in Low Dose groups received a single dose of test article during a 20 minute exposure to achieve a target delivered dose of 10 mg/kg and deposited dose of 1 mg/kg. Animals in High Dose groups received a single dose of test article during a 75 minute exposure to achieve a target delivered dose of 40 mg/kg and target deposited dose of 4 mg/kg.
Animals in each study group were evaluated for potential toxicity by measuring various parameters including: clinical signs, body weight, clinical pathology (BALF cell counts, LDH and albumin measurements), lung tissue cytokines, lung weights, gross pathology, and microscopic pathology of respiratory target tissues. Additionally, three animals in each Low Dose group had lung tissues collected for immunohistochemistry (Alizèe Pathology, Thurmont, M D). Three (3) animals in each Low Dose group were to be euthanized at 1 hour and 4 hours post exposure for blood and tissue collections. Four (4) animals in each High Dose group were euthanized at 4 and 20 hours post exposure for blood and tissue collections.

[2] = tested on: IL-6 and TNF-alpha in HBE-ALI from healthy and CF donors; test: inflammatory cytokine release in HBE-ALI cultures (ELISA); type: cell-based, human; details: for effect on the inflammatory effect of saline: CF HBE-ALI
Description: Nasal airway epithelial cells from normal healthy volunteers or CF subjects were cultured in serum-free media at an air-liquid interface with mucociliary differentiation, based on methods adapted from the approach of Schlegel and colleagues (Suprynowicz, F. A., et al., Proc Natl Acad Sci USA, 2012, 109(49): p. 20035-40; Becker, M. N., et al., Am J Respir Crit Care Med, 2004, 169(5): p. 645-53). A number of unique CF and healthy control specimens were collected, expanded, and cryopreserved using this technique. 30 wells were cultured to differentiation at ALI for over 30 days from each of three unique normal or CF donors (homozygous for F508del). Triplicate cultures were exposed at the apical surface to PBS, native Trx, or ORP-100 and both apical and basolateral media samples were collected at 4 and 24 hours after challenge. Apical collection occurred by placing 200 uL of sterile PBS on the apical surface and recovering this after 15 min incubation. ELISA for IL-6 was performed for each sample in duplicate and others were measured using a multiplexed assay. Media was centrifuged to remove debris and stored at −80 C until ELISA analysis.
FIG. 8: Levels of IL-6 or TNFα induced after 24 hr in the basolateral ALI media of primary HBE cultures from nasal epithelia of non-CF (left series of bars) and CF donors (right series of bars). Delivery: apical-surface bolus application for 15 min of 200 uL volumes of control or test article solutions. PBS: 0.9% phosphate-buffered saline negative vehicle control (black bars); ORP100-1000: 1 mM ORP-100 in PBS (solid dark bars); […] uM ORP-100 in PBS (solid light bars); Trx-1000: 1 mM native thioredoxin-1 in PBS (dark hatched bars); Trx-100: 100 uM native thioredoxin-1 in PBS (light hatched bars). All concentrations reflect volumes delivered to the HBE apical surface.

[3] = thiol pKa (acid-dissociation constant); type: physicochemical; details: verified experimentally, data not shown
Description: The human CF airway surface liquid is approximately 0.8 pH units more acidic than that of unaffected individuals due to the loss of bicarbonate-mediated buffering of proton secretion (Garland A L, Walton W G, Coakley R D, et al., 2013, Molecular basis for pH-dependent mucosal dehydration in cystic fibrosis airways. PNAS 110:15973-8; Shah V S, Meyerholz D K, Tang X X, et al., 2016, Airway acidification initiates host defense abnormalities in cystic fibrosis mice, Science 351:503-7). This has consequences for the clinical use of reducing agents to treat condensed, abnormal mucus. […] Cys thiol pKa values range from pH 8.5 (cysteamine) to pH 9.5 (NAC). In marked contrast to these classical thiols, the structurally-stabilized pKa of the Trx active site Cys32 is two to three logs lower (pH 6.1-6.3), allowing high activity even at acidic CF airway pH (FIG. 2).

[4] = stability analysis, lyophilized vs solution (DTNB and SEC-HPLC); type: physicochemical; details: lyophilized form, six months at 40° C.
Description: Prior work, e.g. WO 2006/090127, teaches compositions for maintenance of thioredoxin in the reduced state. Significant experimentation was required to derive compositions able to keep thioredoxin reduced during storage, and these compositions were complex and required saccharide derivatives and EDTA as excipients. […] ORP-100 and ORP100S proteins were reduced with 100 mM DTT and exchanged over a NAP-5 column into volatile 20 mM ammonium acetate buffer at pH 5.5 to remove residual reductant. Half of the material was frozen at −80° C. then lyophilized while the remainder was kept in solution at either 5° C. or 40° C. for various time points (“PH5.5”). Lyophilized protein was reconstituted back into 20 mM ammonium acetate pH 5.5 immediately prior to evaluation at each time point (“Lyophilized”). Stability was assessed by measuring both free SH groups (DTNB chromogenic assay) and the percent monomers (SEC-HPLC).
For FIG. 3: PH5.5: ORP-100 or ORP100S protein maintained in liquid formulation of 20 mM ammonium acetate, pH 5.5 for 0, 3, 7, 14, 21, 28, 90, or 180 days. Lyophilized: ORP-100 or ORP100S protein stored in the lyophilized form at 5° C. or 40° C. for the 0, 3, 7, 14, 21, 28, 90, or 180 days and assayed following reconstitution in 20 mM ammonium acetate, pH 5.5. Percent free sulfhydryl (reduction state) at 5° C. Second panel: Percent monomer determined by SEC assay at 5° C. Third panel: Percent free sulfhydryl at 40° C. Fourth panel: Percent monomer determined by SEC assay at 40° C.

B1: thioredoxin: native human thioredoxin-1, 12 kDa redox protein with Cys-Gly-Pro-Cys active site (protein)
chain: VKQIESKTAFQEALDAAGDKLVVVDFSATWCGPCKMIKPFFHSLSEKYSNVIFLEVDVDDCQDVASECEVKCMPTFQFFKKGQKVGEFSGANKEKLEATINELV
- retention of starting activity [1]: almost complete retention of starting activity
- neutrophil influx and inflammatory cytokine release (rats): high levels of neutrophil influx and inflammatory cytokine release

B2: ORP-100: thioredoxin protein having a monothiol active site in which the cysteine at position 35 has been replaced with serine (protein, UniProt P10599 2-105, looked up, variant C35S)
Thioredoxin: B1 chain with C34S
- differences in BALF LDH, albumin, cell counts, differential counts and lung tissue cytokines vs. oxidized ORP-100 control groups (Sprague-Dawley rats; low and high dose aerosol): unremarkable
- neutrophil influx (sucrose/EDTA formulation effect) (Sprague-Dawley rats): partially able to mitigate the formulation effect
- adverse test article effects (clinical observations, BALF chemistry, cell count, differential, lung cytokines, macroscopic and microscopic findings) (Sprague-Dawley rats): no evidence of adverse test article effects
- effect on the inflammatory effect of saline [2]: abrogated the inflammatory effect of saline
- anti-inflammatory effect vs. PBS vehicle alone ([2]; concentrations above 100 uM, in normal (isotonic) PBS): significant anti-inflammatory effect
- induction of IL-6 and TNF-alpha ([2]; reduced form, in PBS, apical application): non-inflammatory
- pKa compared to native Trx [3]: same pKa as native Trx
- storage stability (free SH, percent monomer) [4]: excellent storage stability

B3: oxidized ORP-100: oxidized form of ORP-100, control lacking thioredoxin activity (protein, UniProt P10599 2-105, looked up, variant C35S)
Thioredoxin: B1 chain with C34S
modifications: oxidized
- neutrophil influx (sucrose/EDTA formulation effect) (Sprague-Dawley rats): induced
- adverse test article effects (clinical observations, BALF chemistry, cell count, differential, lung cytokines, macroscopic and microscopic findings) (Sprague-Dawley rats): no evidence of adverse test article effects
- effect on the inflammatory effect of saline [2]: not

B4: oxidized thioredoxin: oxidized thioredoxin inactive protein control of Rancourt et al. 2007 (protein, UniProt P10599 2-105, looked up)
Thioredoxin: B1 chain
modifications: oxidized
- BALF cell count and cytokine results (rats): identical BALF cell count and cytokine results as normal saline alone
